Data published in patent US6136558A, “Heregulin variants” (Genentech, Inc., priority 1998, dated 2000).
Substitutions are numbered along the chain they refer to. In names and notes the source's numbering stands. Where two headings read alike, the source gives them in different places. Ends that are not written are not given here.

What was measured:
[1] = molecular target: ErbB-4 receptor-Ig fusion (human) (UniProt Q15303); assay: phage ELISA, soluble ErbB-4-Ig as competitor
[2] = molecular target: ErbB-3 receptor-Ig fusion (human) (UniProt P21860); assay: phage ELISA, soluble ErbB-3-Ig as competitor
[3] = molecular target: ErbB-4 receptor-Ig fusion (human) (UniProt Q15303); assay: phage ELISA, ratio to wild-type HRG-β1 177-244 on phage; clone selected on ErbB-4-Ig with ErbB-3-Ig counter-selection
[4] = molecular target: ErbB-3 receptor-Ig fusion (human) (UniProt P21860); assay: phage ELISA, ratio to wild-type HRG-β1 177-244 on phage
[5] = molecular target: ErbB-3-Ig; assay: Inhibition of 125I-HRG-β1 177-244 binding to ErbB-3-Ig by soluble protein
Method: (§1) The affinities of the Trx-variant fusions for ErbB receptor-Ig fusions were determined by measuring inhibition of ^125 I-HRG-β1 177-244 binding to ErbB-3-Ig and ErbB-4-Ig. Receptor fusions were coated on plates (Nunc Maxisorp C™ break-apart strip wells, Inter Med, Denmark) via anti-human IgG, as described in Example 1 for phage ELISA. Binding assays were carried out with a constant amount of ^125 I-HRG-β1 177-244 (100-300 pM) and varying concentrations (100 pM-4 μM) of unlabeled Trx-variant fusion. Following incubation for 1-3 h at room temperature, plates were washed, and the amount of bound ^125 I-HRG-β1 177-244 in each well was counted on a gamma counter (Isodata, ICN Biomedic Systems, Huntsville, Ala.). For the ErbB-3 binding assays, the blocking buffer was TBST (0.025 M Tris-HC1 [pH 7.5], 0.15 M NaCl, 0.02% Tween 20™) containing 1% BSA; the binding buffer was RPMI 1640™ cell culture media (Gibco-BRL, Gaithersburg, Md.) containing 2 mM glutamine, 100 U/mL penicillin, 100 μg/mL streptomycin, 10 mM HEPES buffer (pH 7.2), 0.2% BSA; and the wash buffer was TBST. For the ErbB-4 binding assays, PBS containing 1% BSA was used as the blocking and binding buffers, and the wash buffer was PBS containing 0.05% Tween 20™.

[6] = molecular target: ErbB-4-Ig; assay: Inhibition of 125I-HRG-β1 177-244 binding to ErbB-4-Ig by soluble protein
Method: as §1

[7] = molecular target: ErbB-2/3 receptor-Ig fusion (ErbB-2/3-Ig); assay: Phage ELISA, competition with soluble ErbB-2/3-Ig; type: binding; details: EGF-like domain displayed monovalently on phage as pIII fusion; soluble ErbB-2/3-Ig competing half of the phage off the plate; average of duplicate experiments
Source text: To produce phage displaying the domains, mutagenesis reaction mixtures were electrotransformed into XL1-Blue™ cells (Stratagene, Inc., La Jolla, Calif.), according to the manufacturer's protocol. The transformed cells were then infected with 10^11 plaque-forming units (pfu) M13K07 helper phage (Promega Corp., Madison, Wis.). […] The phage were resuspended in phosphate-buffered saline (PBS: 0.01 M sodium phosphate, 0.1 M NaCl, pH 7.5).
Microtiter plates (Nunc Maxisorp™ 96-well plates, Inter Med, Denmark) for phage ELISA were prepared as follows. The wells were precoated overnight with 0.5 μg of rabbit anti-human IgG (Fc gamma fragment-specific) antibodies (Jackson Immunoresearch, West Grove, Pa.) in 100 μL 50 mM NaCO3 (pH 9.6). The wells were blocked for 30 minutes (min) with 200 μL PBS containing 0.1% bovine serum albumin (BSA) and rinsed with wash buffer (PBS containing 0.05% Tween 20™). The wells were then coated with 0.1 μg ErbB-2/3-Ig in binding buffer (PBS, 0.1% BSA, 0.05% Tween 20™) for 1 h, and washed again.
Following incubation for 2 h at room temperature, plates were washed extensively and treated with a 1:900 dilution of anti-M13 horseradish peroxidase conjugate (Pharmacia, Piscataway, N.J.) for 20 min. The amount of phage binding was determined by assaying horseradish peroxidase activity using o-phenylenediamine dihydrochloride) substrate solution (Sigma Chemical Company, St. Louis, Mo.).

[8] = molecular target: ErbB-4 receptor-Ig fusion (human) (UniProt Q15303); assay: phage ELISA, ratio to wild-type HRG-β1 177-244 on phage; clone selected on ErbB-4-Ig
[9] = molecular target: ErbB-2/3 receptor-Ig fusion (human) (UniProt P04626); assay: phage ELISA, soluble ErbB-2/3-Ig as competitor
[10] = molecular target: ErbB-3 receptor-Ig fusion (human) (UniProt P21860); assay: displacement of 125I-HRG-β1 177-244 from ErbB-3-Ig
[11] = molecular target: ErbB-4 receptor-Ig fusion (human) (UniProt Q15303); assay: displacement of 125I-HRG-β1 177-244 from ErbB-4-Ig
[12] = soluble HRG-β1 EGF variant free of pIII, inhibition of 125I-HRG binding, read-out: ErbB-3-Ig EC50
[13] = soluble HRG-β1 EGF variant free of pIII, inhibition of 125I-HRG binding, read-out: ErbB-4-Ig EC50

Molecule: HRG-β1 177-244 T217A on phage (ligand)
- EC50 [1]: 14.2 nM
- EC50 [2]: > 1000 nM

Molecule: HRG-β1 177-244 R220A on phage (ligand)
- EC50 [1]: > 1000 nM
- EC50 [2]: > 1000 nM

Molecule: HRG-β1 177-244 R207P on phage (ligand)
- EC50 Mut/Wt [3]: 1.3
- EC50 Mut/Wt [4]: 6.1

Molecule: HRG-β1 177-244 P205A on phage (ligand)
- EC50 [1]: 8 nM
- EC50 [2]: 22 nM

Molecule: HRG-β1 177-244 Y224A on phage (ligand)
- EC50 [1]: 51 nM
- EC50 [2]: 865 nM

Molecule: HRG-β1 177-244 G194A on phage (ligand)
- EC50 [1]: 65 nM
- EC50 [2]: 500 nM

Molecule: HRG-β1 177-244 F189A on phage (ligand)
- EC50 [1]: 106 nM
- EC50 [2]: 892 nM

Molecule: HRG-β1 177-244 L179A on phage (ligand)
- EC50 [1]: 56 nM
- EC50 [2]: 1000 nM

Molecule: A3: HRG-β1 EGF: S177W, H178E, K181P
- EC50 [5, 12]: 4.3 ± 0.2 nM
- EC50 [6, 13]: 2.1 ± 0.1 nM

Molecule: HRG-β1 177-244 E215A on phage (ligand)
- EC50 [1]: 32 nM
- EC50 [2]: 51 nM

Molecule: HRG-β1 177-244 H178L with Met in place of 228-231, on phage (ligand)
- EC50 Mut/Wt [3]: 1.7
- EC50 Mut/Wt [4]: 6.4

Molecule: HRG7: HRG-β1 177-228 fused to pIII 247 (SHLVKCAEKEKTFCVNGGECFMVKDLSNPSRYLCKCPNEFTGDRCQNYVMAS; cysteine pairing not given here; also: fused to pIII 247)
- EC50 [7]: 42 nM

Molecule: HRG-β1 177-244 E195A on phage (ligand)
- EC50 [1]: 24 nM
- EC50 [2]: > 1000 nM

Molecule: HRG-β1 177-244 H178D L179V on phage (ligand)
- EC50 Mut/Wt [3]: 2
- EC50 Mut/Wt [4]: 2.2

Molecule: HRG6: HRG-β1 177-227 fused to pIII 247 (SHLVKCAEKEKTFCVNGGECFMVKDLSNPSRYLCKCPNEFTGDRCQNYVMA; cysteine pairing not given here; also: fused to pIII 247)
- EC50 [7]: 40 nM

Molecule: HRG-β1 177-244 F229A on phage (ligand)
- EC50 [1]: > 1000 nM
- EC50 [2]: 6 nM

Molecule: HRG-β1 177-244 H178T L179M on phage (ligand)
- EC50 Mut/Wt [3]: 1.6
- EC50 Mut/Wt [4]: 1.4

Molecule: HRG-β1 177-244 L179M on phage (ligand)
- EC50 Mut/Wt [8]: 1.5
- EC50 Mut/Wt [4]: 1.2

Molecule: HRG-β1 177-244 N192A on phage (ligand)
- EC50 [1]: 188 nM
- EC50 [2]: > 1000 nM

Molecule: HRG-β1 177-244 K211A on phage (ligand)
- EC50 [1]: 59 nM
- EC50 [2]: > 1000 nM

Molecule: HRG-β1 177-244 H178W with Met in place of 228-231, on phage (ligand)
- EC50 Mut/Wt [8]: 1.7
- EC50 Mut/Wt [4]: 1.2

Molecule: HRG-β1 177-244 F216A on phage (ligand)
- EC50 [1]: > 1000 nM
- EC50 [2]: 500 nM

Molecule: HRG-β1 177-244 H178A on phage (ligand)
- EC50 [1]: 32 nM
- EC50 [2]: > 1000 nM

Molecule: HRG-β1 177-244 K200A on phage (ligand)
- EC50 [1]: 25 nM
- EC50 [2]: 20 nM

Molecule: HRG-β1 177-244 S177A on phage (ligand)
- EC50 [1]: 83 nM
- EC50 [2]: 67 nM

Molecule: HRG-β1 177-244 H178L on phage (ligand)
- EC50 Mut/Wt [3]: 1.2
- EC50 Mut/Wt [4]: 1.4

Molecule: HRG-β1 177-244 G218A on phage (ligand)
- EC50 [1]: > 1000 nM
- EC50 [2]: > 1000 nM

Molecule: HRG-β1 177-244 L179V on phage (ligand)
- EC50 Mut/Wt [8]: 1.6
- EC50 Mut/Wt [4]: 1.5

Molecule: HRG-β1 177-244 H178E L179V on phage (ligand)
- EC50 Mut/Wt [3]: 1.7
- EC50 Mut/Wt [4]: 0.8

Molecule: HRG-β1 177-244 G193A on phage (ligand)
- EC50 [1]: 23 nM
- EC50 [2]: > 1000 nM

Molecule: HRG-β1 177-244 H178E on phage (ligand)
- EC50 Mut/Wt [8]: 1.7
- EC50 Mut/Wt [4]: 9.5

Molecule: HRG-β1 177-244 R207A on phage (ligand)
- EC50 [1]: 30 nM
- EC50 [2]: > 1000 nM

Molecule: F1: single library F variant: Met198Lys and Met226Ile
- EC50 [5, 12]: 0.6 ± 0.04 nM
- EC50 [6, 13]: 0.26 ± 0.011 nM

B1: HRG7 (ligand)
chain: SHLVKCAEKEKTFCVNGGECFMVKDLSNPSRYLCKCPNEFTGDRCQNYVMAS
- EC50 [9]: 42 nM

B2: HRG11 (ligand)
chain: SHLVKCAEKEKTFCVNGGECFMVKDLSNPSRYLCKCPNEFTGDRCQNYVMASFYGGGSGGG
- EC50 [9]: 19 nM

B3: HRG11: HRG-β1 177-230 attached to pIII 247 through GGGSGGG linkage (protein)
chain: B2 chain
modifications: also: attached to pIII 247 through GGGSGGG linkage
notes: HRG-β1 177-230 attached to pIII 247 through GGGSGGG linkage
- EC50 [7]: 19 nM

B4: HRG6 (ligand)
chain: SHLVKCAEKEKTFCVNGGECFMVKDLSNPSRYLCKCPNEFTGDRCQNYVMA
- EC50 [9]: 40 nM

B5: HRG5 (ligand)
chain: YVSSESPIRISVSTEGANTSSSTSTSTTGTSHLVKCAEKEKTFCVNGGECFMVKDLSNPSRYLCKCPNEFTGDRCQNYVMASFYKHLGIEFMEAEELY
- EC50 [9]: 4.7 nM
- EC50 [7]: 4.7 nM

B6: TH-WT (thioredoxin fused at its C-terminus to wild-type HRG-β1 146-244) (ligand)
chain: DDDDKAYVSSESPIRISVSTEGANTSSSTSTSTTGTSHLVKCAEKEKTFCVNGGECFMVKDLSNPSRYLCKCPNEFTGDRCQNYVMASFYKHLGIEFMEAEELY
- EC50 ([5]; soluble thioredoxin (Trx) fusion, inhibition of 125I-HRG-β1 177-244 binding, read-out: Sol EC50, binding to the ErbB-3 Receptor): 47.6 nM
- EC50 ([6]; soluble thioredoxin (Trx) fusion, inhibition of 125I-HRG-β1 177-244 binding, read-out: Sol EC50, binding to the ErbB-4 Receptor): 15.4 nM
- EC50 [10]: 47.6 nM
- EC50 [11]: 15.4 nM

B7: Trx-HRG-β1 146-244 F229A fusion (ligand)
chain: B6 chain with F89A
- EC50 [10]: 177 nM
- EC50 [11]: 89.9 nM

B8: HRG4 (ligand)
chain: YVSSESPIRISVSTEGANTSSSTSTSTTGTSHLVKCAEKEKTFCVNGGECFMVKDLSNPSRYLCKCPNEFTGDRCQNYVMA
- EC50 [9]: 38 nM
- EC50 [7]: 38 nM
